From paper PMC9482650, “Quantitative fragmentomics allow affinity mapping of interactomes” (Nature Communications, 2022)

Columns and labels:
Assay in all cases: holdup assay
Design in all cases: key: below the threshold = too weak to quantify, mostly under pKd 3.1 to 4
APBA3_1, O96018 = biological target: T1, APBA3_1, O96018
T1 sequence (O96018 389-490, limits assumed, looked up): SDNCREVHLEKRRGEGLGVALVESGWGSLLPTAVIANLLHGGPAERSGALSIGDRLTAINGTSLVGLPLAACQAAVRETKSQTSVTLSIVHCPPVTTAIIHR

ARHGEF11, O15085 = biological target: T2, ARHGEF11, O15085
T2 sequence (O15085 42-136, limits assumed, looked up): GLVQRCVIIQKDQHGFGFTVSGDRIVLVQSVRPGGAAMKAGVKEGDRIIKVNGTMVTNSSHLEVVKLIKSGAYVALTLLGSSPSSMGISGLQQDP

DFNB31_1, Q9P202 = biological target: T3, DFNB31_1, Q9P202
T3 sequence (Q9P202 135-233, limits assumed, looked up): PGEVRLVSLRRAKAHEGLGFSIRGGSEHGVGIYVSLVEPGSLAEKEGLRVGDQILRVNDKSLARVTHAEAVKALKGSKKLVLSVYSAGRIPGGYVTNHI

DLG3_1, Q92796 = biological target: T4, DLG3_1, Q92796
T4 sequence (Q92796 125-227, limits assumed, looked up): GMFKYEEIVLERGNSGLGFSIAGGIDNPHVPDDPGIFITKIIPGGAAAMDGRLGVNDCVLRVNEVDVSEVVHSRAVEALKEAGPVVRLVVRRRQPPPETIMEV

DLG4_2, P78352 = biological target: DLG4_2, P78352
Chain of DLG4_2, P78352 (P78352 155-259): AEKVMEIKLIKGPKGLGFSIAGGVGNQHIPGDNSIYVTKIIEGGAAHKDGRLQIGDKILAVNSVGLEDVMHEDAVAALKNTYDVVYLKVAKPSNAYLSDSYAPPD

FRMPD3, Q5JV73 = biological target: FRMPD3, Q5JV73
Chain of FRMPD3, Q5JV73 (Q5JV73 12-100): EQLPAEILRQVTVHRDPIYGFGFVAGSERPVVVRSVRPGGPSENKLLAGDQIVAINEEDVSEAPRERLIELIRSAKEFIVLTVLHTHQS

GRID2IP_2, A4D2P6 = biological target: GRID2IP_2, A4D2P6
Chain of GRID2IP_2, A4D2P6 (A4D2P6 272-370): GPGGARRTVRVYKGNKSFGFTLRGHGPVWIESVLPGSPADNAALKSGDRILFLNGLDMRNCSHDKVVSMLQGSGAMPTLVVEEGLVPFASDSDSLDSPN

GRIP1_4, Q9Y3R0 = biological target: T5, GRIP1_4, Q9Y3R0
T5 sequence (Q9Y3R0 467-571, limits assumed, looked up): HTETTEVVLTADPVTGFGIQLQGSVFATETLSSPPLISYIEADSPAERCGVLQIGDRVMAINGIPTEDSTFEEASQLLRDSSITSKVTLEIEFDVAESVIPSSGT

GRIP2_4, Q9C0E4 = biological target: GRIP2_4, Q9C0E4
Chain of GRIP2_4, Q9C0E4 (Q9C0E4 446-548): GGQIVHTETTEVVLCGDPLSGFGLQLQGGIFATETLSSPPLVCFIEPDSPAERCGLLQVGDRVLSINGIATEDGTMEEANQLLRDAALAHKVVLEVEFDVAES

GRIP2_6, Q9C0E4 = biological target: GRIP2_6, Q9C0E4
Chain of GRIP2_6, Q9C0E4 (Q9C0E4 648-740): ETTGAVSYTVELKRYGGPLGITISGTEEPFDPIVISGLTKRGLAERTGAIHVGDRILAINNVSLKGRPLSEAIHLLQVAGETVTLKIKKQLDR

HTRA3, P83110 = biological target: T6, HTRA3, P83110
T6 sequence (P83110 354-453, limits assumed, looked up): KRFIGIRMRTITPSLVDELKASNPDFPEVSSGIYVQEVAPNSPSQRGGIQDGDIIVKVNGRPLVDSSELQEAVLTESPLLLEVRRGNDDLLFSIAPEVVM

IL16_1, Q14005 = biological target: IL16_1, Q14005
Chain of IL16_1, Q14005 (Q14005 210-306): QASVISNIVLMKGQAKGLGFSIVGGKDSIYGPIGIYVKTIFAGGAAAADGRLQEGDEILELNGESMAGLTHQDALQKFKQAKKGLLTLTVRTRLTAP

IL16_4, Q14005 = biological target: IL16_4, Q14005
Chain of IL16_4, Q14005 (Q14005 1229-1329): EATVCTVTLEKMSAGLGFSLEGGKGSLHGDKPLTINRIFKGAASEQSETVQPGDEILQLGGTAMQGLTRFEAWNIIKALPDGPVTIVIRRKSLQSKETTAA

LNX1_2, Q8TBB1 = biological target: LNX1_2, Q8TBB1
Chain of LNX1_2, Q8TBB1 (Q8TBB1 371-470): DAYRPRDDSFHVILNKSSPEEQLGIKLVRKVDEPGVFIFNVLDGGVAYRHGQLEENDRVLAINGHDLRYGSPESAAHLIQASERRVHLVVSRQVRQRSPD

LNX2_3, Q8N448 = biological target: T7, LNX2_3, Q8N448
T7 sequence (Q8N448 463-564, limits assumed, looked up): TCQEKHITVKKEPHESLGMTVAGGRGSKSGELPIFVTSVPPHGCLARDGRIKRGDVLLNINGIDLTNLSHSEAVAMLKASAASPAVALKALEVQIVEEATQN

LRRC7, Q96NW7 = biological target: T8, LRRC7, Q96NW7
T8 sequence (Q96NW7 1440-1537, limits assumed, looked up): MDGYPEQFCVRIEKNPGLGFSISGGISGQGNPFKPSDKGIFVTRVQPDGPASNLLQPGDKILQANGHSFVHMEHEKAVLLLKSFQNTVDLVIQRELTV

MAGI1_1, Q96QZ7 = biological target: MAGI1_1, Q96QZ7
Chain of MAGI1_1, Q96QZ7 (Q96QZ7 1-106): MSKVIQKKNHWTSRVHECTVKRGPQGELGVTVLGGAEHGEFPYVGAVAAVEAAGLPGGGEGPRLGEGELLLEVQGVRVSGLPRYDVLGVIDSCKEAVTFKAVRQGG

MAGI3_2, Q5TCQ9 = biological target: MAGI3_2, Q5TCQ9
Chain of MAGI3_2, Q5TCQ9 (Q5TCQ9 398-503): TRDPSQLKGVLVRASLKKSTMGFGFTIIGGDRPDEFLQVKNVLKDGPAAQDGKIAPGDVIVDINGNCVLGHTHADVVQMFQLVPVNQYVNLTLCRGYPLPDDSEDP

MAST2, Q6P0Q8 = biological target: MAST2, Q6P0Q8
Chain of MAST2, Q6P0Q8 (Q6P0Q8 1099-1202): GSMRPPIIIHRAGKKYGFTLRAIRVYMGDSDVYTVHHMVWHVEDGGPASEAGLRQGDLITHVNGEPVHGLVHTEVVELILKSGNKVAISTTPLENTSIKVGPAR

NHERF4_4, Q86UT5 = biological target: NHERF4_4, Q86UT5
Chain of NHERF4_4, Q86UT5 (Q86UT5 464-550): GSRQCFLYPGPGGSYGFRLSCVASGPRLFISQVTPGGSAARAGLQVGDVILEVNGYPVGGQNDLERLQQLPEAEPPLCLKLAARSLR

PARD3_3, Q8TEW0 = biological target: PARD3_3, Q8TEW0
Chain of PARD3_3, Q8TEW0 (Q8TEW0 582-685): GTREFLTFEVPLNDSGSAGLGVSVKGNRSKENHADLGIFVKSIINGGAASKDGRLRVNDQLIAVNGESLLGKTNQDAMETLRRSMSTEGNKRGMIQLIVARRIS

PDZD2_2, O15018 = biological target: T9, PDZD2_2, O15018
T9 sequence (O15018 329-429, limits assumed, looked up): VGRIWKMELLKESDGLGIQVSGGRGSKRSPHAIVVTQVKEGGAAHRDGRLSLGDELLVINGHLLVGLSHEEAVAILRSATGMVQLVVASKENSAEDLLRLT

PTPN3, P26045 = biological target: PTPN3, P26045
Chain of PTPN3, P26045 (P26045 505-587): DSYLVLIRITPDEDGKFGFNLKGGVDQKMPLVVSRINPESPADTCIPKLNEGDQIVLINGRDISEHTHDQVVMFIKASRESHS

SCRIB_1, Q14160 = biological target: SCRIB_1, Q14160
Chain of SCRIB_1, Q14160 (Q14160 718-814): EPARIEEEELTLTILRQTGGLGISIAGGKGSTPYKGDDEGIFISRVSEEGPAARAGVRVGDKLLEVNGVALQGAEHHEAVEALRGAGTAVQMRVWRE

SNX27, Q96L92 = biological target: SNX27, Q96L92
SYNJ2BP, P57105 = biological target: T10, SYNJ2BP, P57105
T10 sequence (P57105 8-110, limits assumed, looked up): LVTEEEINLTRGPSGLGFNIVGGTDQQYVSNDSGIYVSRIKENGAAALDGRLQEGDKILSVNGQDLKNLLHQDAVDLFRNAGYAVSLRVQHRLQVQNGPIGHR

TJP2_1, Q9UDY2 = biological target: TJP2_1, Q9UDY2
Chain of TJP2_1, Q9UDY2 (Q9UDY2 24-128): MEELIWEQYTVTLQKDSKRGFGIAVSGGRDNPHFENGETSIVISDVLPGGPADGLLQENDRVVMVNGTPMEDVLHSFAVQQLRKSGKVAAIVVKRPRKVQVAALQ

[1] = plain residues with an end cap or a label only (N-terminal biotin on a linker: ttds)
[2] = plain residues with an end cap or a label only (N-terminal biotin on a linker: ado-ado)

B1: CFTR, P13569 (peptide)
chain: TEEEVQDTRL
pKd (APBA3_1, O96018; [1]): below the threshold
pKd (ARHGEF11, O15085; [1]): below the threshold
pKd (DFNB31_1, Q9P202; [1]): 3.79
pKd (DLG3_1, Q92796; [1]): below the threshold
pKd (DLG4_2, P78352; [1]): below the threshold
pKd (FRMPD3, Q5JV73; [1]): below the threshold
pKd (GRID2IP_2, A4D2P6; [1]): below the threshold
pKd (GRIP1_4, Q9Y3R0; [1]): below the threshold
pKd (GRIP2_4, Q9C0E4; [1]): below the threshold
pKd (GRIP2_6, Q9C0E4; [1]): below the threshold
pKd (HTRA3, P83110; [1]): below the threshold
pKd (IL16_1, Q14005; [1]): below the threshold
pKd (IL16_4, Q14005; [1]): below the threshold
pKd (LNX1_2, Q8TBB1; [1]): below the threshold
pKd (LNX2_3, Q8N448; [1]): below the threshold
pKd (LRRC7, Q96NW7; [1]): below the threshold
pKd (MAGI1_1, Q96QZ7; [1]): below the threshold
pKd (MAGI3_2, Q5TCQ9; [1]): below the threshold
pKd (MAST2, Q6P0Q8; [1]): 5.93
pKd (NHERF4_4, Q86UT5; [1]): below the threshold
pKd (PARD3_3, Q8TEW0; [1]): 3.89
pKd (PDZD2_2, O15018; [1]): below the threshold
pKd (PTPN3, P26045; [1]): 4.21
pKd (SCRIB_1, Q14160; [1]): 5.42
pKd (SNX27, Q96L92; [1]): 5.56
pKd (SYNJ2BP, P57105; [1]): below the threshold
pKd (TJP2_1, Q9UDY2; [1]): below the threshold

B2: RCN1, Q15293 (peptide)
chain: EDLTKNHDEL
pKd (APBA3_1, O96018; [2]): below the threshold
pKd (ARHGEF11, O15085; [2]): 3.79
pKd (DFNB31_1, Q9P202; [2]): below the threshold
pKd (DLG3_1, Q92796; [2]): below the threshold
pKd (DLG4_2, P78352; [2]): 3.62
pKd (FRMPD3, Q5JV73; [2]): below the threshold
pKd (GRID2IP_2, A4D2P6; [2]): 3.48
pKd (GRIP1_4, Q9Y3R0; [2]): below the threshold
pKd (GRIP2_4, Q9C0E4; [2]): below the threshold
pKd (GRIP2_6, Q9C0E4; [2]): below the threshold
pKd (HTRA3, P83110; [2]): below the threshold
pKd (IL16_1, Q14005; [2]): below the threshold
pKd (IL16_4, Q14005; [2]): below the threshold
pKd (LNX1_2, Q8TBB1; [2]): 3.47
pKd (LNX2_3, Q8N448; [2]): 3.51
pKd (LRRC7, Q96NW7; [2]): below the threshold
pKd (MAGI1_1, Q96QZ7; [2]): 3.62
pKd (MAGI3_2, Q5TCQ9; [2]): below the threshold
pKd (MAST2, Q6P0Q8; [2]): below the threshold
pKd (NHERF4_4, Q86UT5; [2]): 4.01
pKd (PARD3_3, Q8TEW0; [2]): below the threshold
pKd (PDZD2_2, O15018; [2]): 3.62
pKd (PTPN3, P26045; [2]): below the threshold
pKd (SCRIB_1, Q14160; [2]): 3.5
pKd (SNX27, Q96L92; [2]): 4
pKd (SYNJ2BP, P57105; [2]): below the threshold
pKd (TJP2_1, Q9UDY2; [2]): below the threshold

B3: SLCO1C1, Q9NYB5 (peptide)
chain: NYWPGKETQL
pKd (APBA3_1, O96018; [1]): below the threshold
pKd (ARHGEF11, O15085; [1]): 4.53
pKd (DFNB31_1, Q9P202; [1]): 4.44
pKd (DLG3_1, Q92796; [1]): 3.9
pKd (DLG4_2, P78352; [1]): 4.78
pKd (FRMPD3, Q5JV73; [1]): below the threshold
pKd (GRID2IP_2, A4D2P6; [1]): 4.29
pKd (GRIP1_4, Q9Y3R0; [1]): below the threshold
pKd (GRIP2_4, Q9C0E4; [1]): below the threshold
pKd (GRIP2_6, Q9C0E4; [1]): below the threshold
pKd (HTRA3, P83110; [1]): below the threshold
pKd (IL16_1, Q14005; [1]): below the threshold
pKd (IL16_4, Q14005; [1]): below the threshold
pKd (LNX1_2, Q8TBB1; [1]): below the threshold
pKd (LNX2_3, Q8N448; [1]): below the threshold
pKd (LRRC7, Q96NW7; [1]): 4.31
pKd (MAGI1_1, Q96QZ7; [1]): below the threshold
pKd (MAGI3_2, Q5TCQ9; [1]): 4.75
pKd (MAST2, Q6P0Q8; [1]): 6.05
pKd (NHERF4_4, Q86UT5; [1]): below the threshold
pKd (PARD3_3, Q8TEW0; [1]): below the threshold
pKd (PDZD2_2, O15018; [1]): below the threshold
pKd (PTPN3, P26045; [1]): 5.42
pKd (SCRIB_1, Q14160; [1]): 5.23
pKd (SNX27, Q96L92; [1]): 5.24
pKd (SYNJ2BP, P57105; [1]): 5.4
pKd (TJP2_1, Q9UDY2; [1]): below the threshold

B4: MAS1, P04201 (peptide)
chain: CNTVTVETVV
pKd (APBA3_1, O96018; [1]): below the threshold
pKd (ARHGEF11, O15085; [1]): below the threshold
pKd (DFNB31_1, Q9P202; [1]): below the threshold
pKd (DLG3_1, Q92796; [1]): 3.51
pKd (DLG4_2, P78352; [1]): 4.45
pKd (FRMPD3, Q5JV73; [1]): below the threshold
pKd (GRID2IP_2, A4D2P6; [1]): below the threshold
pKd (GRIP1_4, Q9Y3R0; [1]): below the threshold
pKd (GRIP2_4, Q9C0E4; [1]): 3.55
pKd (GRIP2_6, Q9C0E4; [1]): below the threshold
pKd (HTRA3, P83110; [1]): below the threshold
pKd (IL16_1, Q14005; [1]): below the threshold
pKd (IL16_4, Q14005; [1]): 3.6
pKd (LNX1_2, Q8TBB1; [1]): below the threshold
pKd (LNX2_3, Q8N448; [1]): below the threshold
pKd (LRRC7, Q96NW7; [1]): below the threshold
pKd (MAGI1_1, Q96QZ7; [1]): below the threshold
pKd (MAGI3_2, Q5TCQ9; [1]): 3.78
pKd (MAST2, Q6P0Q8; [1]): 3.92
pKd (NHERF4_4, Q86UT5; [1]): below the threshold
pKd (PARD3_3, Q8TEW0; [1]): below the threshold
pKd (PDZD2_2, O15018; [1]): 3.59
pKd (PTPN3, P26045; [1]): 3.8
pKd (SCRIB_1, Q14160; [1]): below the threshold
pKd (SNX27, Q96L92; [1]): 4.57
pKd (SYNJ2BP, P57105; [1]): 3.98
pKd (TJP2_1, Q9UDY2; [1]): below the threshold
